These results are taken from patent publication US20200158726A1 (NORDIC BIOSCIENCE A S, published 2020).

No end group written: not given here.

The target of assay [1] is T1, selection peptide SFSGFLVAPM-COOH (human).
T1 construct: Synthetic peptide; also called calibrator peptide
T1 peptide: SFSGFLVAPM-OH
Put plainly: competitive peptide assay (preliminary assays); the peptide also blocked the Western blot bands. A general note: In western blotting, separated proteins are transferred to a membrane and probed.

For the next assay, the target named is T2, collagen type X alpha 1 (human, UniProt Q03692 19-680).
T2 construct: Endogenous protein in U2-OS lysates, seen as bands of about 59 kDa (monomer), 76 kDa and 120 kDa (dimer); also called type X collagen; Col10
T2 sequence (Q03692 19-680): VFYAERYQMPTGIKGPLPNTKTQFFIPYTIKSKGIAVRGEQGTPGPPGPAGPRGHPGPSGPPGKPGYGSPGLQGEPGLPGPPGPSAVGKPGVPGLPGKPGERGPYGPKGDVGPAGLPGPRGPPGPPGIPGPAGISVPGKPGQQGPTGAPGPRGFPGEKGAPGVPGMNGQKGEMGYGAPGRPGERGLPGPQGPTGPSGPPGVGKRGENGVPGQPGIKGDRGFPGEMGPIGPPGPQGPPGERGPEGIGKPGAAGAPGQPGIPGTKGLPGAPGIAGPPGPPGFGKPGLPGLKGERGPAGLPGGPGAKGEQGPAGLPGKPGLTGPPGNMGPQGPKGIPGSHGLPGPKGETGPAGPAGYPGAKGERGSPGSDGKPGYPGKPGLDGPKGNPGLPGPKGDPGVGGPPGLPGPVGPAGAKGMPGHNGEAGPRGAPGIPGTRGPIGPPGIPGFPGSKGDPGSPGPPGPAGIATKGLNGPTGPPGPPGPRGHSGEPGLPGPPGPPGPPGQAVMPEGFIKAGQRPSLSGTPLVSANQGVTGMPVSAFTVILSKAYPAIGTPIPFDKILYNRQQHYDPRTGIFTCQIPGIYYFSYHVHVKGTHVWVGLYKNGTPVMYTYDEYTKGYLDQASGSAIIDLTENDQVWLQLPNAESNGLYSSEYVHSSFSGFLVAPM
As to the kind of experiment: Western blot of U2-OS cell lysate, antibody at 1 ug/ml. How it is done:
Human osteosarcoma cell lines (U2-OS; collagen X producing cell line) were purchased from ATCC (USA) and cultivated in DMEM medium containing 10% FBS, 2 mM L-Glutamine, 100 units/ml penicillin and 100 ug/ml streptomycin. Cells were grown in T25 flasks in a 37° C. incubator at 5% CO2, changing the medium every two or three days. When the cells reached 90% confluency the cell lysates were prepared using RIPA lysis buffer with following procedure: the cell media was removed and the cells washed twice with PBS, followed by adding cold RIPA lysis buffer (25 mM Tris-HCl pH7, 6; 150 mM NaCl, 1% Sodium deoxycholate acid). An EDTA free cocktail tablet was added to the flask then RIPA buffer was distributed to cover the whole surface of flask and incubated on ice for 10 minutes. The cells were scraped and centrifuged at 10,000 RPM at 4° C. for 10 minutes and the supernatants stored at −20° C. until use.
Protein bands were blotted onto a nitrocellulose membrane using the Invitrogen i-Blot gel transfer system according to manufacturer's instruction. The membrane was blocked in blocking buffer (5% skimmed milk in Tris-buffered saline with Tween (TBST)) overnight at 4° C. The monoclonal antibody, NB509-11G8 and commercial collagen type X antibody X53 (for comparison purposes) were applied in a concentration of 1 μg/ml in TBST with 5% skim milk powder and shaken overnight at 4° C. […]

Assay [2] concerns the target T3, truncated peptide SFSGFLVA
T3 construct: Synthetic peptide; the selection peptide without its two C-terminal residues PM
T3 peptide: SFSGFLVA
Put plainly: competitive peptide assay against the biotinylated screening peptide.

Assay [3] has as its target T4, deselection peptide DMDYLPRVPNQ
T4 construct: Synthetic peptide
T4 peptide: DMDYLPRVPNQ
The assay is described as above.

B1: monoclonal antibody NB509-11G8 (antibody, mouse IgG1, kappa, V domains shown)
VH: EVQLQQSGAELVKPGASVKLSCTASGFNIKDTHMHWVKQRPEQGLEWIGRIDPANVNTKYDPRFQGRATITADTSSNTAYLQLSRLTSEDTAVYYCATSGSSPWGQGTTLTVSS
VL: DVVMTQTPLSLPVSLGDQASISCRSSQSLVHSNGYTYSNWYLQKPGQSPKLLIYRVSNRFSGVPDRFSGSGSGTDFTLKISRVEADDLGVYFCSQSTHVPWTFGGGTKLEIKR
notes: Mouse IgG1, kappa, from a hybridoma
As to B1, the binding result in assay [1] was “binds”; with collagen type X alpha 1, “binds”; in assay [2], “no binding”; in assay [3], “no binding”.
